Measured values reported in the DeepSol protein solubility set.

Assay: soluble on expression in E. coli; label from the status in PepcDB or PDB records
With “MTTRTRILTGITTTGTPHLGNYAGAIRPAIVASRDSNADSFYFLADYHALIKCDDPLRIQRSRQEIAATWLAGGLDVERVTFYRQSDIPEIPELTWLLTCVAAKGLLNRAHAYKASVDKNVEAGEDPDAGITMGLYSYPVLMAADILMFNAHKVPVGRDQIQHVEMARDIGQRFNHLFGQGKEFFTMPEALIEESVATLPGLDGRKMSKSYDNTIPLFTSAKDMKDAISRIVTDSKAPGEAKDPDNSHLFTLYQAFSTPAQAAEFRSELLHGLGWGEAKNRLFQLLDAELGEARERYHQLIARPSDLEDILRAGAVKARAVATPFLNELREAVGLRSFAAQVQVAATTKKKAAKAARFISFREDDGSFRFRLLSADGEQLLLSRNFADGKAAGAVTKQLQSGQELDLRTEGNAFGIWLDGACVADSPDFADASARDAAVDALRIALTPAQDLEHHHHHH” the “soluble on expression in E. coli” value was “soluble”.
For “MPKIISKRKFNILRKTKEEIFSQIVYTKKRNGLHKAAKEYYFKDKDFTIIEDQQDRPDKPEELDTPDIPKPPKPPKGPDQPEEPGQPGGPDDPNSGNKKMPKPDEFVTHRQLQEFKKDLLVELHEIFPTKPELKRVEEKVDVLFELQKAQGEQIRIQGEQIKELKVEQKAQGETLQLILQTLQKMNDRLDKIEGKMDKMESRMDKMETRLDKLESK”, the “soluble on expression in E. coli” value was “soluble”.
With “MGSSHHHHHHSSGRENLYFQGMSVVFGVDIVGGSVHGKIKPKYAVVVLENGNEFEKIVSRSKLFRMVKKEKPDIIAVDNIYEVFKDKKDLIFFLKNAPSKTKLVQVTDRENSLPSLSKRFGLNINIRNPVDEARACAYLASFGMGSEISVFTDKTKITVSRNRSLGKGGWRQKKYGRKIHNAVREVYKEIRDRIVEAGFEFVEEVRKGYGGISRGVILVSAPRDRVPINSFKTRDVQVAVEAVEKEKIEFIPLRRTLRYLIVGIDPGATTAIAALDLRGELVDMKSRKGWSPAEVIEFISSLGKPVVVSTDKSSPPEFVSKIRASFNAVLYTPKEDMSVEKKRILTSKYSTSNDHERDALAAAIDAFNSYKSKLINVEKRLPAGIDSDRIKAEIIRGTPLKEVLSVTREESREEKVQAETVSREEILKRDRVIERLKEENRILSRKIKEMKDEIEKLRARVASISREEHEKIRKDTYVQNLEREIFDLRKKLKEKDEEIEQLKERIALLRKMKMLEFQGWKEVKVLRKFTKEEIERAEREMGISEGDIILIVDSSGGSASLAEMLCEKKVRAIIYGSEMSHLAAETFEKYNIPRISIDEVEIMMGDDIAVVNAEEFERVYAEKLEETKRRKIDFLEKLVEDYRRRRVV” the “soluble on expression in E. coli” value was “soluble”.
In the case of “MSSEPPPPPQPPTHQASVGLLDTPRSRERSPSPLRGNVVPSPLPTRRTRTFSATVRASQGPVYKGVCKCFCRSKGHGFITPADGGPDIFLHISDVEGEYVPVEGDEVTYKMCSIPPKNEKLQAVEVVITHLAPGTKHETWSGHVISS”, the “soluble on expression in E. coli” value was “soluble”.
For “MAAKVEPFWKRKTLAQLDQDEWESLCDGCGLCCLQKLEDEDDGSVYYTRIACKLLDLQSCRCTNYAERIRFVPDCIQLTPAQADEFQWLPPTCGYRLVAEGKDLPLWHHLVCGDPERVHKERISQSGRMLSETQVAEDDWEDYLIFRAG”, the “soluble on expression in E. coli” value was “not soluble”.
With “MGSDKIHHHHHHMRILYYDCFCGISGDMNLAALVDLGVPKKYLIDELLKLNLGSEYEIKIEKGQKLGITGTRVDVILKDEHHNKHELEEVLHNHEHKHNHHEIKNDEPAHSHEHHHRSLRDIEEIINSSTLNDKVKKLSLNIFMKVAEAEAKVHGRELYEVHFHEVGAVDSIVDIVGAAICIDYLKVDKILASRVQVGGGFVRCAHGIMPVPAPATVEILKNIPINTGIVQFETTTPTGAAILAANVKEFTQKLDFIIKKTAYGIGHRDLEIPNVLRVYLGEEESFQDIENQYILETNIDDMNPEIYGYVEEKLFKVGALDVFKTPICMKKGRPGIKLSVLTNEKSEREVLDVIFEETTSIGVRRYKVEKIMLKREFSKVKTEFGDITVKKAYYKGELVKYKPEYEECKDIAREKNVSIHKVYKAVYKQDLK” the “soluble on expression in E. coli” value was “not soluble”.
For “MRQWTAIHLAKLARKASRAVGKRGTDLPGQIARKVDTDVLRKLAEQVDDIVFISGTNGKTTTSNLIGHTLKANNIQIIHNNEGANMAAGITSAFIMQSTPKTKIAVIEIDEGSIPRVLKEVTPSMMVFTNFFRDQMDRFGEIDIMVNNIAETISNKGIKLLLNADDPFVSRLKIASDTIVYYGMKAHAHEFEQSTMNESRYCPNCGRLLQYDYIHYNQIGHYHCQCGFKREQAKYEISSFDVAPFLYLNINDEKYDMKIAGDFNAYNALAAYTVLRELGLNEQTIKNGFETYTSDNGRMQYFKKERKEAMINLAKNPAGMNASLSVGEQLEGEKVYVISLNDNAADGRDTSWIYDADFEKLSKQQIEAIIVTGTRAEELQLRLKLAEVEVPIIVERDIYKATAKTMDYKGFTVAIPNYTSLAPMLEQLNRSFEGGQS”, the “soluble on expression in E. coli” value was “not soluble”.
For “MGSDKIHHHHHHMEQINHQWLPHLSKEIVEDARGPEFDAYLVALEGWRRGLTLRWHTKDSEAFREIKTWFVDRPGKLFSLRLEEKTHYFFRTRGDKVTNEAVAIGADKEKTKEYLAKAGIPIPEGRRFVAEIEDDEIISYAAEIGYPLVVKPTDGSFGRGVVTNIEDEVTFAEQLRHVRHVLNYKDVIVERHVAGKDYRLYVVGDKVVAAIERIPANVVGNGKQTIQELIEAKNEERQKNPRLISCPIKLDQEMKNHLAIQGYGLDTIPEDGEMVFLTNKSNISIGGDPVDQLDSLPEEVKQLAVQALQAVPQLPHGAVDILYDDKQPVEEGAVVLELNPTAQIGSLVFPMKGIARDVPAAIIDYYFPETKGMNGQKSRFYFDFSDVLEPLVTKTASVTTVSAAPLGEVYGKKYTVTGDVQGIDYHRGLRKQAFERKLSGFVKNLENGNIEVIVMGTDPESVNDFKQAIFEDPERSDVVDVFEESWEEPVKVGFEVKADLKMQVDQLKKMKLELETVQKDLKEAERKNIKYKKSLTWRMTLPFRKTLDVLKYFKRK”, the “soluble on expression in E. coli” value was “not soluble”.
With “MGSDKIHHHHHHMTIFSVRHITSYRYKRPVEFGEHRLMFRPRDSFDQTLLSSHLDVDPKPDYIRWIHDVFGNCVALVGFTGKARELCFGTNIRLDHTQQVEMDLQIDAEALHYPFAYDPEEVVDLERTIKRHFADPDDEVGRWTRQFVRIGQPTETGRLLMTLCYAIHESFIYARRLEHGTQTPLETLRLRRGTCRDFALLMMEAARSLGLAARFVTGYIYVPDRDGSTKLGGGSTHAWCQVYLPGAGWVEFDPTNGIVGNRDLIRVGVARDPKQAVPLSGSYDGDASDFDTMSVQVNVTTDKLSDTAA” the “soluble on expression in E. coli” value was “not soluble”.
For “AHHHHHHGSEKLEKTVDMNIQQMINLSVLELVKLGLKYGIFKAVSKKISYIDLLNQVDVPNKPLLKKLIDHLKLLGIIEETPTHLLLNSFSYEIRFPKEEHMYLLPDWIPSFEEIYRMVDFALITPNHPHVLMDFDKDADFWDLRLSSTFHEAYRILIAKLGEIGEGSRVLDIGCGSASPAYFGKLVGEEGEYVGVDYSPALLEIAKNRTEGLPVKLKEMDASLIKPKNKYDVAIMSFVLEYIENRRSALRNALDSLESGGKLIIVDAFKDEFRNVEALEFFEGLNSAFREYPSKKYIKEVILDEGFEVKFGDYGKAILLIEKL”, the “soluble on expression in E. coli” value was “soluble”.
In the case of “MSLANLNIFGQEVGADVEGWTTRAFPEKVVLKGNTCRLEPLDRERHGSELFSAYSEAGQKLWTYLPAGPFTNLEEYLEFIKELNETKDTVPFAIINKETERAVGTLCLIRIDEANGSLEVGYVVFSPELQKTIIATEAQFLLMKYVFDDLQYRRYEWKCDSLNGPSRRAAMRLGFKYEGTFRQVVVYKGRTRDTQWFSIIDKEWLRIRKTFEEWLDKTNFENGKQKRGIAAIRESLSNEGHHHHHH”, the “soluble on expression in E. coli” value was “soluble”.
For “MGSDKIHHHHHHFDGFGAVSGGGATSKLLFTYFSEKSDRKQVLESLFNKDNGLQLLKVEMGGDDQSTEGTESSHESEKGKISKNNYEFQLISEVREINPTIPICVLPWAFPGWIGNTPYDNVTETAEYVVNWLKIGRDTWNFDTFCVGVWNERNFSESYVKELRKILNLNGFNETLIVAGEGFRMDDSYSRLLDKRFINEYDIIG”, the “soluble on expression in E. coli” value was “not soluble”.
In the case of “MHHHHHHMGLELYLDLLSQPCRAVYIFAKKNDIPFELRIVDLIKGQHLSDAFAQVNPLKKVPALKDGDFTLTESVAILLYLTRKYKVPDYWYPQDLQARARVDEYLAWQHTTLRRSCLRALWHKVMFPVFLGEPVSPQTLAATLAELDVTLQLLEDKFLQNKAFLTGPHISLADLVAITELMHPVGAGCQVFEGRPKLATWRQRVEAAVGEDLFQEAHEVILKAKDFPPADPTIKQKLMPWVLAMIR”, the “soluble on expression in E. coli” value was “soluble”.
In the case of “MRFFNKYKLFLDCAYKHLNIVLLDFKTNTVVDQLTIPVQQNLTELAVYHLEKLLKKNKVRNNTVRQFYVTTGPGSFTGQRVGAIIAKTWCTVNPNCQLFALNSLRLQIPYGCGISKISAGNEKNYCGLFTETTSEIALLAKPDFVKLCKANTELPVYENFENIDSIEELFLNNIERFELVENPQNLELLYLKDPVN”, the “soluble on expression in E. coli” value was “soluble”.
With “MSTPVDLTEGLDGAKLAVTVLMIRDSPTGLEVYVQERVSSMPTFPNATVFPGGGVDPRDFELDGVESEHETFGGPSLMHWARSLGTNRNRARALLFAAARELFEETGTLLATHSDGTPIPDATQYHPQRLALESHRLSLSQVLARHDLTLRSEWLRPSTRWVSPETDEKRFDMFAFVAVQPPGQEPDGNTREAASTGWFSPSLILDGWRAGLIRLVIPTWAQLLILSRFDCVRDVLEFLRRADMTPIIGDPVDDPRFEEFYSFTPPERF” the “soluble on expression in E. coli” value was “not soluble”.
In the case of “MGSDKIHHHHHHMITIKKGLDLPITGEPSREISEHRPAHVALIGYDYVGMKPTMNVKEGDIVAKGQSVFEDKKRAGVIYTAPAAGKVVAIKRGERRVFESLVIAVDPNGAEVEFQRYDSQQLADLDSEVVETQLLASGEWTAFRTRPYSRAPEIGARPHAIFVTAMDTNPLAFDPMLLINEQLQAFNDGLAVLSTLSPKTFVCHHGNSQLTPVAKTAANNVTEYHSFAGKHPAGLAGTHIHFLHPIMRGTSVWTIGYQDVIAIGKLFTSGRLYTRRLLSLAGPAVSNPHVIATERGADIAALTKGNLTAGENRVISGSVLSGRQVFANIAYLGRFDNQVSVLAEGRERPAFHFFTPGANRFSKLPIYISQFFGGKKYNFTTTSNGSPRAMVPIGVYEEVMPQDYLPTQLLRALIVEDIVTAVDLGVLELDEEDLALCTFVSPGKYEFGDILRDNLTRIELEG”, the “soluble on expression in E. coli” value was “not soluble”.
In the case of “MSLDNIIIIQTKNPNYYAIKYAYKNQYEQFYEEELNIRKKLNYPPFNKIIRIIFRSKNEESAKQKCWEFFEKSKEFLQEEIEHLGPSEAIMKKISKNYRYNIIYLSKSYSLLEKLVNKTKEKVKMTSTVYIEIDYYPISEGHHHHHH”, the “soluble on expression in E. coli” value was “not soluble”.
In the case of “SGGRPIQFFRRLAIWKYMKDYFPVSLVKTAELDPSRNYIAGFHPHGVLAAGAFLNLCTESTGFTSLFPGIRSYLMMLTVWFRAPFFRDYIMSGGLVSSEKVSADHILSRKGGGNLLAIIVGGAQEALDARPGAYRLLLKNRKGFIRLALMHGAALVPIFSFGENNLFNQVENTPGTWLRWIQNRLQKIMGISLPLFHGRGVFQYSFGLMPFRQPITTIVGKPIEVQMTPQPSREEVDRLHQRYIKELCKLFEEHKLKFNVPEDQHLEFC”, the “soluble on expression in E. coli” value was “soluble”.
With “MYKNILLGVDTQLKNEKALKEVSKLAGEGTVVTVLNAISEQDAQASIKAGVHLNKLTEERSKRLEKTRKALEDYGIDYDQIIVRGNAKEELLKHANSGKYEIVVLSNRKAEDKKKFVLGSVSHKVAKRATIPVLIVK” the “soluble on expression in E. coli” value was “not soluble”.
For “MSLSNYISIKGAKVNNLKNIDVNIPRNKLVVITGLSGSGKSSLAFDTGKTICPVCHGTRLKKEAGYVKVGGKSISQLVDLPIHDLKEFFRTLELDAHDTAIAKRILTEITNRINFLMDVGLGYLTLNRLSNSLSGGESQRINLATSLGSSLVGSLYILDEPSIGLHSRDTDRLIKVLRQLQELGNTVVVVEHDEEIIRAADYIIDIGPQAGRLGGQIVYQGNMNDLQRNSNSYTVRYLLGEEGHHHHHH”, the “soluble on expression in E. coli” value was “soluble”.
